{
  "source": "paper PMC10818705",
  "origin": "cited, not measured here",
  "target": "Tyr109 (UniProt position 129, EGEHFYFFCTF)",
  "data": [
    {"substance": "Azurin, His107/Tyr109 (Lys122) hopping variant (Pseudomonas aeruginosa; W48F;Y72F;Y108F;H83Q;Q107H;M109Y)", "values": [
      {"measurement": "pKa", "value": "10.2 ± 0.3"}
    ]}
  ]
}
